The nature of this series: label from the status in PepcDB records.
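Note: failed if final PepcDB status was selected cloned or expressed and not failed if soluble or beyond.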

Consider “MTPSLSGLPPIRTALIGYGFAGKTFHAPLIRAVPALCLEHVVSRDPGRVHADLPEARVSADPDEAIEAADIDLVVIASPNATHASLAERALRAGKHVVVDKPFTVTLAEARRLADLARERPGQVLSVFQNRRFDSDFLAVEAALQAGSIGPVRYFESAIERFRPQVRDRWREHDLPGSGLWFDLGPHLLDQALCLFGVPQRVHGHLRRLREGALTDDWFEVLLDYPHCQVALRASMLAANPAPRFNVHGDHGSLLKAGADIQEAQLLQGLHPGSAGWGRDPDLLQHIDGQGLRQSLVTPAGDQSRYYQALAAAIRGQSRNPVSAQQACALMALLELARRSAEEGRSLPVELRDEERQAWN”, for which the protein production result was “failed”.

“MTPTPSFAAYVGAHWAAVVIYVIATVVNVYGLLFRSEPAERWSYRLISVGWMIHSVVIAYWWWVTGHGPYLSRNEVLSSDAWIALTVFMCFQRLYPRVRPASIVVFPSVFLMIALGLFFDVQIRTLPPTFSGIWLVIHIAFYKIALGTILIALACSIFLVLKKRTPFAWLQRLPDLESLDLHAYRFAGFGFIIWAIAMLAGSIWAYKSWGRFWGWDPVENWSLITWILFGIHLHLRRFFRWSGERAALFYVVCFIFSLVALFYTSHMDTSIHMEYFR”: the protein production result is given as “failed”.

Consider “MTPYRRILLIMTEAQANAALSRAMALSAASGASLHVLGIHESGVLRLPHELQEAPLHSASFMHFSTELKALLDEQSFVGARPGFEAVETSNPRDQLPACIARYAPDLVIKGCPGHSLLEQIARTSLDQALLH”, for which the protein production result is “failed”.

“MTQDEWIDIPQGWSQGRTIYGGLVAGLLMHKALSVMNDESKNLLSTSITFVGPVNEGRVRLTVEILRQGKSVTTIEARLWQDQAVQTILIASFGQPRSLEHHHHHH”: the protein production entry is “not failed”.

Consider “MTQELQTLEVEEEMMMRKFYELMSRQRLNKKMIMLVLIEIDVGSFEENGEDSKCVTWTERHKPLKGNNAAGVLPLQRLVRDGLLAYGPEVF”, for which the protein production entry is on record as “failed”.

Turning to “MTQKEWPLWEVFVRSKQGLEHKHCGSLHATDAQQALHMARDVYTRRQEGVSIWVVPSTAITASAPEEKPELFDPMADKIYRHPTFYQLPDEVNHM”, the protein production result was “not failed”.

“MTQKRKLDAASPGDPHDFAADGIERQTLRMVEQALRADRLMLAWQPVVVASEAARTVFHEGLIRVLDETGRIIPARDFMSAVETQDLGRLIDCASLEKGLATLARHPGLRLSINMSARSIGHGRWMQILQGALRADPNLGPRLILEITESSAMEVPELVLPFMDALQRAGISFALDDFGAGFTAFRYLKDFFFDIIKIDGQFIRNIHRDPDNQVLTQAMLSVGRHFDMLTVAETVETAEEAEWLRAAGVDCLQGYLFGRPCTQPAWQATGTRLIA”: the protein production entry is on record as “failed”.

As to “MTQPSGLKNLLRAAAGALPVVPRTDQLPNRTVTVEELPIDPANVAAYAAVTGLRYGNQVPLTYPFALTFPSVMSLVTGFDFPFAAMGAIHTENHITQYRPIAVTDAVGVRVRAENLREHRRGLLVDLVTNVSVGNDVAWHQVTTFLHQQRTSLSGEPKPPPQKKPKLPPPAAVLRITPAKIRRYAAVGGDHNPIHTNPIAAKLFGFPTVIAHGMFTAAAVLANIEARFPDAVRYSVRFAKPVLLPATAGLYVAEGDGGWDLTLRNMAKGYPHLTATVRGL”, the protein production result was “failed”.

As for “MTQQHPHLLEPELGEFLTALKNTPSRLTARTAAWLCIWTASRPGMVRLAEWKEFDLDKATWTTPAAKMKMRRDFVCPLPHQAIAALKELHCLTGRSRWLFPGVGAKNPTISENTINKVFATIGYKGRLVGHGTRHTASTLLREHGWPKEHVEAQLAHKEEGLEHHHHHH”, the protein production result is “failed”.

For the sequence “MTQQLFTLFAVFISLFLFGMAVMRAGLLTMNAEKARVGILRFVDNPLKGFFVGLLLTILLQSSSAVMIVTIGFVAAGYVTFRQSIGIILGTNVGTCFTVELIALDLHSLIVPLLLIGLIGLAIPHLITYCLGCVSFGLACIFISMNGLENLASPLAAIPAIQAFIELTNDWLIVGAGVGTLLTALIQSSTATTAIAMGFLNEEIIGIHGGIAIMLGANIGTCFTALLASIGSGRTSRLVAFAHLWLNVIGVLLFIPLIPHLSHFVMTLTTIPAIQLAHASTIFNVICSLAILPFVKPFASFIETLHGPSQ”, the protein production entry is reported as “failed”.

With “MTQQPRSTARTPASAEDPAAAAAHPPLAAPRPPAEHRVWPRTFHDRLTAPLPGLKAFARFAREGAVRPGPAGLADVPRLPCAPGPLPRVDARTVAVTWAGHASWVVRIGGLTVLTDPVWSRRILGTPPRVTPVGVPWSALPRVDAVVISHNHYDHLDAPTLRRLPRDTPVLVPAGLGRWFHRRRFTHVTELDWWEATELNGVRFDFVPAHHWSKRSLTDTCRTLWGGWVLTDPDGRRVYFAGDTGYGHWFTRIGRRYPGIDLALLPIGAYDPRWWLSDVHCDPEEAVRAAQDVGARRMAPMHWGTFVLSAEPVLEPLARVRAAWQQAGLPRERLWDLPIGASRVLE”, the protein production entry was “failed”.

“MTQQTFLVEIGTEELPPKALRSLAESFAANFTAELNNANLPYGEVIWYAAPRRLALKVTNLSATQADREVEKRGPAIAQAFDAEGKPSKAAEGWARGCGITVDQAERLVTDKGEWLLYRAHVKGQSAQLLLAGMVNTALSKLPIPKLMRWGDKDTQFVRPVHTVTMLLGSEVIPGTVLGIDSDRIIRGHRFMGEPEFTLDNADQYPQVLQERGKVIADYELRKAIIKRDAELAAQKIGGVADLSESLLEEVASLVEWPVVLTAKFEEKFLAVPAEALVYTMKGDQKYFPVYDTAGNLLPNFIFVANIESKDPQQIISGNEKVVRPRLADAEFFFKTDRKKRLEDNLPRLETVLFQQQLGTLRDKTDRIQALAGWVAAQIGADVNHATRAGLLSKCDLMTNMVFEFTDTQGVMGMHYARHDGEAEDVAVALNEQYQPRFAGDDLPSNPVACALAIADKMDTLAGIFGIGQHPKGDKDPFALRRAALGVLRIIVEKNLPLDLQTLTEEAVRLYGSKLTNTKVVDEVIEFMLGRFRAWYQDEGHSVDTIQAVLARRPTRPADFDARVKAVTYFRTLDAAAALAAANKRVSNILAKSTDKLNDHVRASVLKEPAELKLATHLVVLRDKLEPVFAAGQYQEALVELAALRETVDEFFESVMVMDEDDAVRVNRLTLLSKLRELFLQVADISLLQ”: the protein production result is reported as “not failed”.

Turning to “MTQRAGIHPSARRPSAFDPPIGCARPAMTDTLSLRPIVGRRRLWELDPHFHCSIVGTCLTMSDLRKLATKTRLSVPADAPDYRLHGVFVRAAGAAGPAEKGIAKLMDKDLERRHTRALAQFRKAADNDALEALWDGAREAGDIPGPYWALMCHPLASRTLLERAFGEVHMLSHLMGAANRADVRRLAEMERETEAVEDRLAEAEARRLREIEIKQGEIGQLRAAIEAERARTRALVRRLEEAGEGGCRDLRIQTLEATMEGLRERLNREAWRADRLQGKLAEAERLLTEVRADRDDLRRRLAEQAEDLRTLEDLALDDDGEAGDRPPLDLGGRTILYVGGRPRTVPSLRKLVEDSNGRFAHHDAGREDGRAHLGEVLSGADIVICPVDCISHDACLKAKRACLKRGTPFVPLSSAGLGAFARCLRETAPLFAPANDGAALAAELEHHHHHH”, the protein production entry was “failed”.

With “MTQRKVYAPVPVMVAGIAIIATRFLGILLLVWELGLSDLSGWIGSNAEAWDSTLVLLLSLIIVGVEIRCGFAVLAGVNWGRWGYIACQGVVVCYLLLASLSEFMPAIFHISGENHAAVLHQLLMQKIPDLLVIVLLFLPRRSKRFFLRQK”, the protein production entry is “failed”.

As to “MTQRPRQDERAKDVWFEYVLTAGRFSAWPIRWQGWLATALLIVGPITGMMAIAKLAPGVPPFVLVLGAMTVCFGTVFPLAYFKGRPAKSRG”, the protein production entry is reported as “failed”.

As for “MTQTDRPCLAALVILILLQLIMLFSLFAGVPPHPPIATPLFGIGPFIGASVSAAIAAIVLGESRAARVLALLAVLGALVSFGPQKYLDPQFPLIWPAVIAAQLAAITVLVRLLPALSRQDA”, the protein production result is “failed”.

Regarding “MTQTVDIENTDNVLSRRDSNAETQQMLRQRFETQPDLMPAQLASELGIAELEVVTALPQAQRVFLPLAHMDELLQSLPEWGSLTTIVMLSGSVFEFKGDFPQGKFAHGYYNLYSKGDGLHGHLKLDGMRAIALISRPFRGSESHSINFFGPQGEVVFKVYLGRDKQRVLFPDQVRRFKALAATFAD”, the protein production result was “failed”.

Values taken from a protein production outcome set (Wang et al. 2014).
